Data: patent publication US20160045158A1, “DEVICES, SYSTEMS, AND METHODS FOR TRANSDERMAL DELIVERY OF COMPOUNDS” (PROMETHEON PHARMA, LLC, priority 2013, published 2016)

Key:
[1] = test system: keratinized apical layer of the mouse cervix; conditions: in vivo
From the text: The P188/PG (80/20 ratio) co-polymer was then used to deliver FITC-tagged 38 amino acid cytotoxic decoy peptides.
To achieve topical delivery of decoy peptides into the entire mouse cervical T-zone, a solid FITC-tagged decoy peptide-containing co-polymer/enhancer rod was manually delivered into the endocervical canal and into one of the 2 cervical/uterine horns of a 7 month old K14E6 homozygous female transgenic mouse expressing the HPV type 16 E6 oncoprotein that synergizes with 1713-estradiol to induce low-grade dysplasia (CIN I, II) in situ that closely mimics the step-wise development of human cervical cancer; the “untreated” cervical served as an internal control.
After animals were anesthetized, a “speculum” comprised of a standard P-100 pipette tip with the tip cut off at the midpoint along its length was inserted into the vagina to expose the opening of the cervical canal. A three-fourth inch long, 24-guage catheter (Teruma Surflush; inner diameter 0.47 mm) with the trocar removed was fit onto a compatible P-10 micropipette. The catheter was loaded with the peptide-containing, liquid co-polymer/enhancer formulation to a length that approximates the entire cervical T-zone and extends across the squamo-columnar junction into the uterine horn. […]
1 mM FITC-conjugated *Br1 was used for direct visualization of peptide delivery by fluorescence microscopy. […]

[2] = test system: EpidermFT™ (MatTek) full thickness human skin equivalent tissues; assay: Transdermal flux/accumulation across EpidermFT full thickness human skin equivalents (Iso-Insulin ELISA of receptor fluid); type: in vitro ADME
Procedure: Proof-of-concept ex vivo studies of transdermal delivery of long-acting insulin analogues by a poloxamer 188, propylene glycol and lauracopram formulation designated TopiconDM™ were performed using metabolically active full thickness human skin equivalent (HSE) inserts from EpidermFT™ (MatTek) grown on a semi-permeable membrane that allows test compounds to pass through the tissue and accumulate in the receptor fluid on the other side. It is important to note that the term TopiconDM™ is a trademark, is not descriptive of the subject formulation, and is merely an indication of the source of the subject formulation. Thus, the use of the term TopiconDM™ herein shall not be used to affect any trademark rights associated with the term TopiconDM™.
All transdermal delivery in this model occurs exclusively by permeation across the barrier-enhanced stratum corneum. Drug permeation studies were modeled according to classic Franz cell in-sink diffusion studies. Studies were carried out for 5-7 continuous days to determine whether a 7-day TopiconDM™ basal insulin patch containing an insulin or insulin analogue is feasible. A semi-high throughput protocol was developed for the use of EpidermFT™, a barrier enhanced, mitotically and metabolically active human skin tissue model.
To determine the feasibility of creating a 7-day (weekly) TopiconDM™ insulin glargine patch, a protocol was developed in which the tissue inserts were incubated in tissue culture maintenance medium (with serum). All insulin and insulin analogues were commercially purchased and lyophilized. TopiconDM™ insulin glargine formulations were specifically adjusted to pH 4.0; all other insulin formulations were adjusted to pH ˜7 were prepared to deliver doses ranging from 0.01-50 IU in a volume of 50 microliters at 32° C. applied to the apical surface of individual 0.6 cm^2 EpidermFT™ (MatTek) full thickness human skin equivalent tissues in 6-well plates containing 2.0 ml of receptor fluid incubated at 32° C. throughout the duration of each study. It was empirically determined that 50 microliters of the formulations was sufficient to cover the entire surface of the tissue inserts when applied directly to the center. 200 microliter samples from the receptor chamber on the basal side were removed at 0.5, 1, 2, 3, 6, 8, 12, 20, 24 hours and then every 24 hours for up to 7-days; 200 microliters of fresh maintenance medium with serum was added back to receptor chamber after each sampling (closed system model). Plasma insulin and insulin analogue accumulation in mIU/cm^2 (reflecting transdermal delivery across 0.6 cm^2 tissue surface area) was quantified using the Iso-Insulin ELISA Kit (Mercodia AB, Uppsala, Sweden).
The MatTek EpidermFT™ (EFT-300) tissues are also documented to have more of the structural features of the basement membrane. […] The saturating dose for insulin glargine is 10 U/0.6 cm^2 since the flux is not increased at a dose of 20 U/0.6 cm^2. Indeed, the accumulation curves for these doses are superimposable. Results reflect ELISA measurements (Mercodia Iso-Insulin) performed in triplicate for samples at each time point.

[3] = cited from earlier work
[4] = Plasma glargine PK in STZ-induced male CD hairless rats (type 1 DM); type: in vivo, rat; conditions: single 2 U subcutaneous injection
Procedure: (§1) Referring to FIG. 14, shown is a 24 Hour PK/PD study showing rapid appearance in and elimination of SC Injected Glargine from the Systemic Circulation. The red plot is the glargine concentration from pooled plasma (average±std dev of ELISA measurements). Blue plot is blood glucose (BG) concentration (average±std dev) measured by ACCU-CHEK® Aviva glucose meter. Average BG (blue line) and range (white horizontal bar) in normal CD hairless rats was determined to be ˜130 mg/dL (100-160 mg/dL) in a cohort of adult rats weighing ˜250 gm.
ELISA to quantitate the plasma glargine level was performed in triplicate on pooled blood for each time point (alternating N=2 and N=3) using the Mercodia Iso-Insulin kit. Blood samples were pooled to allow for adequate sampling of many time points over the course of 24-hour study and to reduce variability. This method has been validated for performing PK studies.
(§2) Green plot is plasma glargine concentration (average±std dev). Brown plot is blood glucose concentration (average±std dev) measured by ACCU-CHEK® Aviva glucose meter. Measurements were obtained from all individual animals (N=4) at each time point (i.e. blood samples were not pooled). ELISA to quantitate the plasma glargine level was performed in triplicate on blood samples from individual animals (N=4) at each time point using the Mercodia Iso-Insulin kit.

[5] = test system: STZ-Induced Male CD Hairless Rat: Type 1 DM; assay: Blood glucose PD in STZ-induced male CD hairless rats (type 1 DM); type: in vivo
Procedure: as §1
PD (Y-axis scale on right): The blood glucose (BG) and plasma glargine plots are essentially minor images of each other, consistent with an expected dramatic BG lowering effect after insulin glargine injection. The baseline mean BG of ˜375 mg/dL rapidly reached a nadir of ˜70-80 mg/dL that was persistent between 0.5-5 hours, representing asymptomatic hypoglycemia.
as §2
Referring to FIG. 16, A PD study of insulin glargine BG lowering effect comparing 1 U subcutaneous (sc) injection (gold standard) versus 5 U/1 cm^2 patch was performed. Referring to FIG. 18, the blue plot is BG concentration (average±std dev) of rats that received a single 1 U subcutaneous injection. Brown plot is BG concentration of rats that received a 5 U/1 cm^2 patch. BG measurements by ACCU-CHEK® Aviva glucose meter were obtained from all individual animals (N=4) at each time point (i.e. blood samples were not pooled). ELISA to quantitate the plasma glargine level was performed in triplicate on blood samples from individual animals (N=4) at each time point using the Mercodia Iso-Insulin kit.

[6] = type: in vitro ADME, human
Procedure: In human studies, the total plasma free insulin concentration reached a plateau concentration of 18.9 µIU/mL based on a well cited published study of glargine pharmacokinetics after a single subcutaneous injection in type 1 diabetic subjects over 3-24 hours (Lepore, M et al 2000, Diabetes 49:2142-2148). However, the actual steady-state plateau glargine concentration was 6.4 µIU/mL because the patients were titrated to an insulin concentration of ˜12.5 µIU/mL with a continuous lispro short-acting insulin infusion before glargine was administered. After scaling for average adult blood volume of 5 L and adjusting for known cross-reactivity of our ELISA assay with various insulin analogues (44% for glargine, 22% for detemir), a table comparing patch size and insulin dose required to achieve targets of 6.4 µIU/mL within 24 hours after administration of TopiconDM™ containing insulin glargine could be determined. […] However, it is apparent that the 10 IU/0.6 cm^2 dose of insulin glargine can achieve and maintain a target steady-state total insulin concentration of 6.4 µIU/mL with a 0.6×0.6 cm patch throughout the 5-days of the study.
The concentration of insulin glargine achieved is based on accumulation in 2.5 ml of receptor volume in the tissue model extrapolated to average adult blood volume of 5 L. […]

ERQIKIWFQNRRMKWKKATGCLLDDGLEGLFEDID [*Br1]
penetration across keratinized apical layer of mouse cervix / cervical squamous epithelium [1]: Successful transdermal delivery

Human growth hormone (hGH): human growth hormone (22 kDa)
flux dose-response [2]: clear dose-response

insulin aspart
flux dose-response [2]: clear dose-response

insulin detemir
Cmax for adults ([3]; single 0.5 U/kg dose, patients with type 1 DM): 208 microU/mL

insulin glargine
return of plasma concentration to baseline level [4]: ≤ 5 h | t1/2 [4]: ~2 h | Cmax (plasma glargine) ([4]; adult rats ~250 gm): ~120 microU/mL | hypoglycemia (BG<100 mg/dL) ([5]; 1 U sc injection): rapidly became hypoglycemic | hypoglycemia (BG<100 mg/dL) ([5]; 2 U sc injection): rapidly became hypoglycemic | period during which blood glucose nadir persisted ([5]; 2 U subcutaneous injection): 0.5 to 5 h | blood glucose nadir ([5]; 2 U subcutaneous injection, baseline mean BG ~375 mg/dL): 70 to 80 mg/dL | actual steady-state plateau glargine concentration ([3]; after subtracting ~12.5 µIU/mL lispro infusion background): 6.4 µIU/mL | total plasma free insulin plateau concentration ([3]; single subcutaneous injection of glargine, type 1 diabetic subjects, over 3-24 hours (Lepore 2000)): 18.9 µIU/mL | mean plateau plasma concentration ([3]; single subcutaneous injection, patients with type 1 diabetes): ~6.4 micoU/mL | flux dose-response [2]: clear dose-response | saturating dose (flux not increased at 20 U/0.6 cm^2) [2]: 10 U/0.6 cm^2 | size of patch required to achieve and maintain target levels [6]: under 1 cm×1 cm

insulin glulisine
flux dose-response [2]: clear dose-response

insulin lispro
flux dose-response [2]: clear dose-response
